B1: R764-B7 (HT186-B7 IgG) (antibody, V domains shown)
VH: QMQLVQSGAEVKKPGASVKVSCKASGYTFTGHYMHWVRQAPGQGLEWMGWIDPVTGGTKYAQNFQGWVTMTRDTSIRTAYMELSRLRSDDTAMYYCAREVTGDRGQFDKWGQGTLVTVAS
VL: QSVLTQPPSVSVAPGKTARITCGGNNIGSKSVHWYQQKPGQAPALVIYYGSYRPSGIPERFSGSNYGNTATLTIRRVEAGDEADYYCQVWDSSSDWVFGGGTKLTVLG
notes: Human IgG1, lambda, produced in YB2/0 cells
B2: R764-D11 (HT186-D11 IgG) (antibody, V domains shown)
VH: QMQLVQSEAELKKPGASVKVSCKASGYSFTGHYMHWVRQAPGQGLEWMGWIDPVTGGTKYAQNFQGWVTMTRDTSIRTAYLELSRLRSDDTAMYYCAREVTGDRGQFDKWGQGTLVTVAS
VL: QSVLTQPPSVSVAPGKTARITCGGNNIGSKSVHWYQQKPGQAPALVIYYGSNRPSGIPERFSGSNSGNTATLTISRVEAGDEADYYCQVWDSSSDWVFGGGTKLTVLG
notes: Human IgG1, lambda, produced in YB2/0 cells; also called R764 HT186-D11
B3: R764-G2 (HT186-G2 IgG) (antibody, V domains shown)
VH: RMQLVQSGAEVKKPGASVKLSCKASGYTFAGHYMHWVRQAPGRGLEWMGWIDPVTGGTKYAQNFQGWVTMTRDTSIRTAYMELSRLRSDDTAMYYCAREVTGDRGQFDKWGQGTLVTVAS
VL: QSVLTQPPSVSVAPGKTARITCGGNNIGSKSVHWYQQKPGQAPVLVIYYGSDRSSGIPERFSGSNSGNTATLTISRVEAGDEADYYCQVWDSSSDWVFGGGTKLTVLG
notes: as for B1

Legend:
[1] = target: T1, MUC1 (surface cell bound, tumor associated MUC1) (human, UniProt P15941 24-1255, tumor-associated O-glycosylation); experiment: FACS on T47D cells, antibody at 100.0000 µg/ml
T1 construct: whole, on cells; Endogenous MUC1 on tumor cell lines; also called CD227; CA-15-3
Experimental: (§1) From these antibody solutions further dilution by a factor of 3.162 were made (in a PP microtiter plate), so following antibody concentrations were used for FACS (μg/mL): 100, 31.62 10; 3.16; 1; 0.316; 0.1, 0.0316, 0.01, 0.003162
(§2) bound anti-MUC1 antibodies were detected by: goat anti-human IgG (H+L) Alexa488 conj. 1:200=10 μg/mL final (Invitrogen resp. Molecular probes Cat.No. A-11013) in 100 μL FACS buffer in total: 38.5 μL (stock: 2 mg/mL) were given to 7661.5 μL FACS buffer
(§3) The measurement was performed on a Beckman Coulter Cytomics FC500. Gates were set by analyzing a mock-control of each cell line w/o any antibody incubation. Specific protocol files (.pro) were saved.

[2] = target: T1, MUC1 (surface cell bound, tumor …); experiment: FACS on T47D cells, antibody at 31.6228 µg/ml
Experimental: as §1, §2, §3

[3] = target: T1, MUC1 (surface cell bound, tumor …); experiment: FACS on T47D cells, antibody at 0.0032 µg/ml
Experimental: as §1, §2, §3

[4] = target: T1, MUC1 (surface cell bound, tumor …); experiment: FACS on T47D cells, antibody at 0.0316 µg/ml
Experimental: as §1, §2, §3

[5] = target: T1, MUC1 (surface cell bound, tumor …); experiment: FACS on T47D cells, antibody at 3.1623 µg/ml
Experimental: as §1, §2, §3

[6] = target: T1, MUC1 (surface cell bound, tumor …); experiment: FACS on T47D cells, antibody at 0.1000 µg/ml
Experimental: as §1, §2, §3

[7] = target: T1, MUC1 (surface cell bound, tumor …); experiment: FACS on T47D cells, antibody at 0.3162 µg/ml
Experimental: as §1, §2, §3

[8] = target: T1, MUC1 (surface cell bound, tumor …); experiment: FACS on T47D cells, antibody at 0.0100 µg/ml
Experimental: as §1, §2, §3

[9] = target: T1, MUC1 (surface cell bound, tumor …); experiment: FACS on T47D cells, antibody at 10.0000 µg/ml
Experimental: as §1, §2, §3

[10] = target: T1, MUC1 (surface cell bound, tumor …); experiment: FACS on T47D cells, antibody at 1.0000 µg/ml
Experimental: as §1, §2, §3

T1 sequence (P15941 24-1255): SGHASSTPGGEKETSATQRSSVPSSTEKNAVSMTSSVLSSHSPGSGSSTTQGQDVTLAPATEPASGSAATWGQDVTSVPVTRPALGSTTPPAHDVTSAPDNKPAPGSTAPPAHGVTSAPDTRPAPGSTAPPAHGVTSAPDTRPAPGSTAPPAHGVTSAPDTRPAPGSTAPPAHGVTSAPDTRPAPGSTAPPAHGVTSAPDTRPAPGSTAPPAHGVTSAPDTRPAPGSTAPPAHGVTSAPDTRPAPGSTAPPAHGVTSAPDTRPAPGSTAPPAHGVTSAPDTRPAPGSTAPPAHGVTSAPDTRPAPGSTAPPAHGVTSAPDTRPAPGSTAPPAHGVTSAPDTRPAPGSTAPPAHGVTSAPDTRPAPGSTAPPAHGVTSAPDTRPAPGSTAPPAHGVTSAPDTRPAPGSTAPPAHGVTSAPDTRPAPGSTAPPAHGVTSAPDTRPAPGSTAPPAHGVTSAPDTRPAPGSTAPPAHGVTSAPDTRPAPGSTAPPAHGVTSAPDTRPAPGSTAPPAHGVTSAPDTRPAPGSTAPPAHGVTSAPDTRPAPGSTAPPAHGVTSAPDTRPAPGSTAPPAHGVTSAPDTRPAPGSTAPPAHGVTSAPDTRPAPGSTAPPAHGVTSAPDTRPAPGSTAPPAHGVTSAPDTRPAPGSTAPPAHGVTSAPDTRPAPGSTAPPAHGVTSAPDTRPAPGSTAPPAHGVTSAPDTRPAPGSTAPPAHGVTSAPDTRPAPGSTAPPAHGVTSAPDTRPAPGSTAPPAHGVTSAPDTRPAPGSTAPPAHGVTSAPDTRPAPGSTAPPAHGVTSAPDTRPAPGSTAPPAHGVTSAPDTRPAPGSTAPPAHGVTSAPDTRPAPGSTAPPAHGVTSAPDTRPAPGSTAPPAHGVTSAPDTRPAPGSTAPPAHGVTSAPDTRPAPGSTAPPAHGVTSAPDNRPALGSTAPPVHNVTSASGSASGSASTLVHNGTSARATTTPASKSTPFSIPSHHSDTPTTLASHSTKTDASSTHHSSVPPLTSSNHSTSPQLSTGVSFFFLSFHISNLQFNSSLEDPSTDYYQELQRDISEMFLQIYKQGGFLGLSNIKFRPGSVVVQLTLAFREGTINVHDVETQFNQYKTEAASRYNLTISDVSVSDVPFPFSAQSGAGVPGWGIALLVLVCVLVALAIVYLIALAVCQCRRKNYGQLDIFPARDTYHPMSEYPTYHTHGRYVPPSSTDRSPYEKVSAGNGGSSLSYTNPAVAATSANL

Binder | MFI [1] | MFI [2] | MFI [3] | MFI [4] | MFI [5] | MFI [6] | MFI [7] | MFI [8] | MFI [9] | MFI [10]
B1 | 12.6 | 9.16 | 0.738 | 1.04 | 4.96 | 0.728 | 1.44 | 1.11 | 6.56 | 2.26
B2 | 17.4 | 13.2 | 1.17 | 1.13 | 7.92 | 1.45 | 1.96 | 1.09 | 11.1 | 4.72
B3 | 6.15 | 3.68 | 0.706 | 1.04 | 0.802 | 0.664 | 0.515 | 0.767 | 1.99 | 0.605

Reference: US20110318757A1 (MAB FACTORY, published 2011)
